Laboratory results published in patent publication US20170226193A1 (UNIVERSITY OF MASSACHUSETTS, published 2017).

T1: a.a. 142-273
T1 construct: not shown: N-terminal His tag and vector-derived linker of pET45-His
T1 chain: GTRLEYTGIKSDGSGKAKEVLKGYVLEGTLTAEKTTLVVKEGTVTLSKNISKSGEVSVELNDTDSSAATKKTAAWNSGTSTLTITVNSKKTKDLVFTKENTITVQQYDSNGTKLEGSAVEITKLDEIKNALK

T2: a.a. 178-273
T2 construct: not shown: N-terminal His tag and vector-derived linker of pET45-His
T2 chain: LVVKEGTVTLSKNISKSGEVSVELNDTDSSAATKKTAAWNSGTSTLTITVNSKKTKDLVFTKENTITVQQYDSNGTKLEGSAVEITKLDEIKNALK

T3: native OspA on Borrelia afzelii BO23 spirochetes (Borrelia afzelii BO23, UniProt P0A3N7 17-273)
T3 sequence: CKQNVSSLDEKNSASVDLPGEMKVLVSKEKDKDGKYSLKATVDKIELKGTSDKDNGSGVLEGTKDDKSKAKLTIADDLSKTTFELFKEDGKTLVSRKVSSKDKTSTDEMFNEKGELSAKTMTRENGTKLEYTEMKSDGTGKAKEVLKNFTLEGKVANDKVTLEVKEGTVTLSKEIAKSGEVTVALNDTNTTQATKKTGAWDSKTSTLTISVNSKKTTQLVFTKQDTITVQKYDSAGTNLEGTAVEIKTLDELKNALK

T4: a.a.18-141
T4 construct: not shown: N-terminal His tag and vector-derived linker of pET45-His
T4 chain: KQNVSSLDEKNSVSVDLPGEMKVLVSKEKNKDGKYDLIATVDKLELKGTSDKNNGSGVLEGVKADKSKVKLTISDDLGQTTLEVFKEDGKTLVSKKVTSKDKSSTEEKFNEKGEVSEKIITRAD

T5: a.a. 18-177
T5 construct: not shown: N-terminal His tag and vector-derived linker of pET45-His
T5 chain: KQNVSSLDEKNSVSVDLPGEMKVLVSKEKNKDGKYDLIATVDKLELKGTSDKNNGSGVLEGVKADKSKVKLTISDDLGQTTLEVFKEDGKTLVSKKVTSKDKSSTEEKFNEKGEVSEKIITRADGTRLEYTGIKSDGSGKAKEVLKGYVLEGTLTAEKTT

T6: a.a. 71-273
T6 construct: not shown: N-terminal His tag and vector-derived linker of pET45-His
T6 chain: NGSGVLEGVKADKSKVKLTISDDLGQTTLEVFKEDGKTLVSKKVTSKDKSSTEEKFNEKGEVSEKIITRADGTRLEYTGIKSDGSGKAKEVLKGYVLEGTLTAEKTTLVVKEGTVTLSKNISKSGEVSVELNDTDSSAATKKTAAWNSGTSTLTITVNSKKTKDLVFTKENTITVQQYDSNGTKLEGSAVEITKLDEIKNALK

T7: a.a. 106-273
T7 construct: not shown: N-terminal His tag and vector-derived linker of pET45-His
T7 chain: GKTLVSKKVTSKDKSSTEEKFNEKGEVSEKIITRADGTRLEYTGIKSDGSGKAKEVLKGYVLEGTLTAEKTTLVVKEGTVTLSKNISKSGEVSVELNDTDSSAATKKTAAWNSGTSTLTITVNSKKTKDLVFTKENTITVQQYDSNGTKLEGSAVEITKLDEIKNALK

T8: recombinant OspA of Borrelia afzelii ACA-1 (OspA-afzelii) (Borrelia afzelii ACA-1, UniProt P0A3N7 17-273)
T8 construct: also called OspA B. afzelii; not shown: N-terminal GST tag (pGEX-4T-3) or His tag (pET45-His)
T8 sequence: T3 sequence

B1: anti-OspA antibody 212-55 (antibody, V domains shown)
VH: EVQLVESGGGLVQPGGSLRLSCAASGFTFRNYWMDWVRQAPGKGLEWVANIKQDGSVKYYVDSVEGRFTISRDNAKNSLFLQMNSLRAEDTAVYYCARDGYSGYDSVGFDIWGQGTMVTVSS
VL: EIVLTQSPGTLSLSPGERATLSCRASQSVSSSYLAWYQQKPGQAPRLLISDTSSRATGIPDRFSGSGSGTDFTLTISRLEPEDFAVYYCQQYGSSPYTFGQGTKLEIK
notes: also called HuMab 212-55
B2: anti-OspA antibody 319-44 (antibody, V domains shown)
VH: EMQLVQSGAEVKKPGESLKISCKGSGYIFATYWIGWVRQMPGKGLEWMGIIYPNDSDTRYSPSFQGQVTISADKSINTAYLQWSSLKASDTAMYYCARTRWYFDLWGRGTLVTVSS
VL: not shown
notes: also called HuMab 319-44; 319-44 wild-type antibody
B3: anti-OspA antibody 221-7 (antibody, V domains shown)
VH: EVQLVQSGSEVKKPGESLKISCQVSGYSFTSYWIGWVRQMPGKGLERVGFIYPGDSDTRYSPSFQGQVTISADKSISTAYLQWSSLKASDTAMYYCARGILRYFDWFLDYWGQGTLVTVSS
VL: AIQLTQSPSSLSASVGDRVTITCRASQGISSGSAWYQQKPGKAPKLLIYDVSSLESGVPSRFSGSGSGTEFTLTISSLQPEDFATYYCQQFNSYLLTFGGGTKVEIK
notes: also called HuMab 221-7
B4: anti-OspA antibody 857-2 (antibody, V domains shown)
VH: EVQLVQSGEEVKKPGESLKISCKGSGYKFSSYWIGWVRQMPGKGLEWMGIIFPGDSDKRYSPSFQGQVTISADKSISTVYLQWSSLKASDTAMYYCARHITTHTYRGFFDFWGQGTLVTVSS
VL: AIQLTQSPSSLSASVGDRVTITCRASQDISSALAWYQQKPGKAPKLLIYDVSSLESGVPSRFSGSGSGTDFTLTISSLQPEDFATYYCQQFNGYPHRLTFGGGTKVEIK
notes: also called HuMab 857-2

Tests used:
[1] = molecular target: T1, a.a. 142-273; experiment: ELISA on plate-coated OspA protein form [panel B]
[2] = molecular target: T2, a.a. 178-273; experiment: ELISA on plate-coated OspA protein form [panel B]
[3] = molecular target: T9, recombinant OspA of Borrelia garinii PBi (OspA-garinii) (Borrelia garinii PBi, UniProt Q09089 17-273); experiment: SPR, Biacore 3000; antibody amine-coupled on CM5 chip, OspA in solution
T9 construct: also called OspA B. garinii; not shown: N-terminal GST tag (pGEX-4T-3) or His tag (pET45-His)
T9 sequence (Q09089 17-273 limits assumed): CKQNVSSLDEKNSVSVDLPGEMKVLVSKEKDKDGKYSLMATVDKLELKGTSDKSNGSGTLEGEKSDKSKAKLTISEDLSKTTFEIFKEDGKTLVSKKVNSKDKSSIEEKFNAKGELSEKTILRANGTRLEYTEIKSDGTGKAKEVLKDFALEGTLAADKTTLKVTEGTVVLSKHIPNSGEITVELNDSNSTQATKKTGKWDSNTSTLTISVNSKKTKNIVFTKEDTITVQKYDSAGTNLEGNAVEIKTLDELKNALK

[4] = molecular target: T3, native OspA on Borrelia afzelii BO23 …; experiment: cell-based or functional assay
[5] = molecular target: native OspA on Borrelia burgdorferi B31 spirochetes (Borrelia burgdorferi B31, UniProt P0CL66 17-273); experiment: cell-based or functional assay
[6] = molecular target: T4, a.a.18-141; experiment: ELISA on plate-coated OspA protein form [panel B]
[7] = molecular target: T5, a.a. 18-177; experiment: ELISA on plate-coated OspA protein form [panel B]
[8] = molecular target: T6, a.a. 71-273; experiment: ELISA on plate-coated OspA protein form [panel B]
[9] = molecular target: T7, a.a. 106-273; experiment: ELISA on plate-coated OspA protein form [panel B]
[10] = molecular target: T10, OspA (a.a. 18-273) mutant with D249A and S250A point mutations, N-terminal His tag (Borrelia burgdorferi, UniProt P0CL66 18-273); experiment: ELISA on plate-coated OspA protein form [panel B]
T10 construct: not shown: N-terminal His tag of the pET45 vector

[11] = molecular target: T11, recombinant OspA of Borrelia burgdorferi B31 (OspA-burgdorferi) (Borrelia burgdorferi B31, UniProt P0CL66 17-273); experiment: SPR, Biacore 3000; antibody amine-coupled on CM5 chip, OspA in solution
T11 construct: also called OspA B. burgdorferi; not shown: N-terminal GST tag (pGEX-4T-3) or His tag (pET45-His)

[12] = molecular target: T8, recombinant OspA of Borrelia afzelii …; experiment: as above
Experimental: Biacore 3000 was used to determine the affinity of HuMabs to OspA-burgdorferi, OspA-garinii and OspA-afzelii. HuMabs was captured on the surface of a Biacore chip (GE healthcare) via amine coupling (Sensor Chip CM5). The captured Mabs were exposed to various concentrations of OspA in solution. The Kₒₙ and Koff for an affinity (KD) were calculated by BIAevaluation software.

[13] = molecular target: T11, recombinant OspA of Borrelia …; experiment: SPR, Biacore 3000
[14] = molecular target: T8, recombinant OspA of Borrelia afzelii …; experiment: SPR, Biacore 3000
[15] = molecular target: T9, recombinant OspA of Borrelia garinii …; experiment: SPR, Biacore 3000
[16] = molecular target: native OspA on Borrelia garinii PBi spirochetes (Borrelia garinii PBi, UniProt Q09089 17-273); experiment: cell-based or functional assay
native OspA on Borrelia garinii PBi spirochetes, sequence (Q09089 17-273 limits assumed): as above

Binder | binding result [1] | binding result [2] | Kd [3] [nM] | Borreliacidal activity (EC50 (nM)) [4] [nM] | Borreliacidal activity (EC50 (nM)) [5] [nM] | binding result [6] | binding result [7] | binding result [8] | binding result [9] | binding result [10] | Kd [11] [nM] | Kd [12] [nM] | Kd [13] [nM] | Kd [14] [nM] | Kd [15] [nM] | Borreliacidal activity (EC50 (nM)) [16] [nM]
B1 | binds | no binding | 480 | – | – | – | – | – | – | – | – | – | – | – | – | –
B2 | binds | binds | 674 | 4 | < 0.4 | no binding | no binding | binds | binds | no binding | 328 | 1200 | – | – | – | –
B3 | no binding | no binding | 1.3 | 0.9 | < 0.4 | binds | binds | binds | no binding | binds | 0.66 | 7.8 | ≤ 22 | ≤ 36 | ≤ 36 | 6.6
B4 | no binding | no binding | 1 | 2 | 2 | binds | binds | binds | binds | binds | 0.65 | 1.6 | ≤ 22 | ≤ 36 | ≤ 36 | 41.6
